Where two headings read alike, the source gives them in different places. Marks after values point to notes of the source that are not given here.
Legend:
[1] = BTK FAC plasma stability assay, PBS buffer arm; assay type: physicochemical; settings: for Plasma stability (h) PBS: incubation to 24 h
Outline: (§1)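 Compound from a 500 µM acetonitrile:water working solution was spiked into K3-EDTA plasma or Dulbecco's PBS and incubated with shaking at 38 °C. Samples taken at 0, 2, 6 and 24 h were precipitated with cold acetonitrile containing glyburide internal standard. Semi-quantitative LC-MS/MS used analyte:internal standard peak area ratios.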

[2] = BTK FAC plasma stability assay, mouse plasma; assay type: in vitro ADME; settings: for Plasma stability (h) mouse: incubation to 24 h
Outline: as §1

[3] = BTK FAC plasma stability assay, rat plasma; assay type: in vitro ADME; settings: for Plasma stability (h) rat: incubation to 24 h
Outline: as §1

[4] = BTK FAC plasma stability assay, dog plasma; assay type: in vitro ADME
[5] = In vivo pharmacokinetic study in Beagle dogs (i.v. or s.c.), FAC and payload in blood; parameters: species or system dog
Description: (§2) Pharmacokinetic studies were conducted in male C57/B16 mice; male Sprague-Dawley rats; male Beagle dogs and male Cynomolgus monkeys. 3 animals per group were used for each study performed. All studies were performed in accordance with local animal welfare regulations.
Between 1 and 10 µM/kg FAC was administered either intravenously or subcutaneously as a solution in 10 mM PBS with NaOH (dose volume 0.4 mL/kg in dog and monkey s.c. and 0.2 mL/kg i.v. in monkey). Serial 100 µL blood samples were collected via venipuncture of the cephalic vein at defined timepoints to 336 hours (into EDTA coated tubes).
(§3) Each blood sample was precipitated with acetonitrile containing internal standard; samples were mixed and centrifuged (20 minutes 4000 RPM at 4° C.). Supernatant was transferred to a microwell plate and evaporated under nitrogen at 60° C. Residue was resuspended in acetonitrile/water (7:3 v/v); plate sealed and transferred to an ultrasonic bath for 3 minutes, prior to analysis. Quantification was performed by LC-MS/MS (SciexAP16500 Q-trap, Shimadzu Nexera X2) using a Phenomenex Polar RP analytical column (2.5 μm particle size; 50×2 mm). The mobile phase consisted of solvent A (0.1% formic acid in water) and solvent B (0.1% formic acid in acetonitrile). The fatty acid conjugate and API were detected using multiple reaction monitoring.
(§4) Data analysis and calculation of non-compartmental pharmacokinetic parameters was
(§5) performed using an in-house analysis. Following intravenous administration whole blood clearance was calculated by the dose administered divided by AUC0-inf. Volume of distribution at steady state was calculated as MRT*CL, where MRT is the mean residence time, calculated by AUMC0-inf/AUC0-inf. The half-life (t1/2) of the terminal elimination phase was calculated by 0.693/λ. For both intravenous and subcutaneous administration, the systemic exposures were determined by calculating the area under the blood concentration time curve (AUC) from time zero to the last observed quantifiable concentration (AUClast) by using the linear trapezoidal method and normalised to dose. Extrapolated AUC (AUC0-inf) is calculated by addition of AUClast and AUCtlast-inf; where AUCtlast-inf is calculated based on Clast/λ. The slope of the terminal elimination phase was estimated by linear regression of the terminal data points (minimum 3 points) from a natural log concentration versus time plot of the data. Bioavailability was calculated as the dose normalized ratio of […] AUCinf to intravenous AUCinf (100*[SC AUCinf/SC dose]/[IV AUCinf/IV dose]). Following subcutaneous administration Cmax is calculated as the average maximum observed peak concentration and Tmax is the time associated with the determined Cmax.

[6] = In vivo pharmacokinetic study in mice (i.v. or s.c.), FAC and payload in blood; parameters: species or system mouse; settings: for AUC: male, C57/B16, whole blood
Description: as §2
[…] Serial 30 µL blood samples were collected via venipuncture of the tail vein in mouse, and via the cannulated jugular vein in rats at defined timepoints to 216 hours (into EDTA coated tubes).
as §3, §4, §5
For PK experiments, non-tumor bearing mice or rats were treated once (10 mL/kg) with a compound either i.v. or s.c. Serial blood samplings from the tail vein (5-20 μl) were collected during the course of the experiment. For PK/PD experiments in tumor-bearing mice, compound was administered once (10 mL/kg) either i.v. or s.c. Animals were randomized into groups of n=3 and tissue samples were collected at several time points. At the times indicated, animals were anaesthetized by exposure to 2-3% v/v isoflurane in medical oxygen. They were sacrificed without recovering from anesthetic after blood sampling into commercially prepared EDTA coated tubes (Milian, cat #TOM-14C) in order to extract plasma. The tissues were excised, weighted and rapidly frozen in liquid nitrogen. Later, tumors were cryogenic dry pulverized with the CryoPrep™ system (model CP-02, Covaris). For efficacy experiments in ectopic tumor-bearing mice, animals were randomized into groups of n=6 for a mean tumor size of 100 mm^3 and compound was administered either i.v. q3w or s.c. q2w. When implanted in brain, animals were randomized into groups of n=4 for a mean bioluminescence of 1.0-2.0E+06 [p/s]/[ρW/cm^2] and compound was administered i.v. qw. Tumor response were reported with the measures of tumor volumes or bioluminescence from the treatment start. […]

[7] = BTK FAC plasma stability assay, cyno plasma; assay type: in vitro ADME, cynomolgus monkey
BTK C481S = molecular target: T1, BTK C481S (Homo sapiens, UniProt Q06187, C481S); assay: PD screen in TMD8 BTK C481S mutant tumor-bearing mice, BTK levels and compound concentrations in blood and tumor; assay type: in vivo, mouse; settings: i.v.; 50 umol/kg
T1 construct: endogenous in cells; host or cells: TMD8 BTK C481S mutant tumour xenografts in mice
Description: All animal studies were conducted in accordance with ethics and procedures covered by permit nos. BS-1975 issued by the Kantonales Veterinäramt Basel-Stadt and in strict adherence to guidelines of the Eidgenössisches Tierschutzgesetz and the Eidgenössische Tierschutzverordnung, Switzerland. All animals had access to food and water ad libitum and were identified with transponders. They were housed in a specific pathogen-free facility with a 12-h light/12-h dark cycle. For PD screen experiments in TMD8 BTK C481S mutant tumor-bearing mice, FAC was injected once. Animals were randomized into groups of 2 and tissue samples collected at day 0, 4, 7 and in some studies day 10 as well. Blood samples were collected and tumors were excised, weighed, frozen in liquid nitrogen and cryogenic dry pulverized with the CryoPrep™ system (model CP-02, Covaris). Concentrations of compounds in blood and tumors were determined by UPLC/MS-MS and BTK levels were analyzed by Meso Scale Discovery.

T1 sequence (Q06187 whole entry C481S): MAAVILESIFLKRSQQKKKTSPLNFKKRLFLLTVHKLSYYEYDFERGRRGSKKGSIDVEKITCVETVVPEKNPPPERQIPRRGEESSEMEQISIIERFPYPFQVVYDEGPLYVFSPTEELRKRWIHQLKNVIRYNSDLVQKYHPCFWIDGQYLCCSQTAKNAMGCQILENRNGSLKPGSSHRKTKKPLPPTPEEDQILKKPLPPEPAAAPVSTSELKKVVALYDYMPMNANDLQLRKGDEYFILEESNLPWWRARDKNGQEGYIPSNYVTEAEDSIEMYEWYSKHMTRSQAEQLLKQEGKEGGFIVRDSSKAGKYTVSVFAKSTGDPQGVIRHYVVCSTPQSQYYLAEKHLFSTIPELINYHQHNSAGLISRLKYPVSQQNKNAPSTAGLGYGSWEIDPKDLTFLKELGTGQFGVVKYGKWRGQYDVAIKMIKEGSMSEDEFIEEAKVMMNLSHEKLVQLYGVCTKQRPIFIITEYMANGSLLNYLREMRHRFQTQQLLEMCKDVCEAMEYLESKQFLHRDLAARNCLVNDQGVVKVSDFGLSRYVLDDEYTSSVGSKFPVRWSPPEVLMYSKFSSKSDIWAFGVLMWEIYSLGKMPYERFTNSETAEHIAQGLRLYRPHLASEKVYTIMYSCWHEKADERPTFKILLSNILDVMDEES

Row | Structure (SMILES) | % Release of degrader after 24 h PBS [1] [%] | Plasma stability (h) PBS [1] [h] | % Release of degrader after 24 h mouse [2] [%] | Plasma stability (h) mouse [2] [h] | % Release of degrader after 24 h rat [3] [%] | Plasma stability (h) rat [3] [h] | Plasma stability (h) dog [4] [h] | % Release of degrader after 24 h dog [4] [%] | C0 ([5]; analyte FAC, FAC i.v. dose 1 umol/kg, read-out: FAC C0-uM dog) [µM] | AUC ([5]; male, Beagle, dog, whole blood, iv, analyte FAC, FAC i.v. dose 1 umol/kg, read-out: FAC AUC-uM.h dog) [µM·h] | C0 ([5]; male, Beagle, whole blood, sc, dog, subcutaneous dosing, FAC s.c. dose 1 umol/kg, read-out: FAC C0) [µM] | Payload C0-uM (unconjugated degrader dosed, first payload cell) ([6]; API i.v., listed as note (20 mg/kg), species taken as mouse) [µM] | AUC ([6]; iv, API i.v., listed as note (20 mg/kg), species taken as mouse, read-out: Payload AUC-uM.h (unconjugated degrader dosed, first payload cell)) [µM·h] | AUC ([6]; sc, mouse, subcutaneous dosing, unconjugated Compound Va at 20 mg/kg, read-out: Payload AUC) [µM·h] | Plasma stability (h) cyno [7] [h] | % Release of degrader after 24 h cyno [7] [%] | Payload C0-uM dog ([5]; analyte payload after FAC i.v. dose 1 umol/kg) [µM] | Duration of BTK degradation in mouse ≥90% (BTK C481S) [days] | Duration of BTK degradation in mouse ≥90% (days) (BTK C481S)
1 | CCCCCCCCCCCN(C(=O)CCCCCCCCCC(=O)O)C(CCC(=O)NCCOCCOCCOCCOCCOCCOCCOCCOCCOCCOCCOCCOCCC(=O)NCC(=O)OC(C)(C)c1ccc(C(=O)Nc2cc(F)cc(-c3ncnc4[nH]c(-c5ccc(CCN6CCC7(CC6)CCN(C(=O)c6ccc(OC)c(N8CCC(=O)NC8=O)c6)CC7)cc5)cc34)c2C)c(F)c1)C(=O)O (stereo not shown) [Example A1, 50-Carboxy-2-(4-((3-(6-(4-(2-(9-(3-(2,4-dioxotetrahydropyrimidin-1(2H)-yl)-4-methoxybenzoyl)-3,9-diazaspiro[5.5]undecan-3-yl)ethyl)phenyl)-7H-pyrrolo[2,3-d]pyrimidin-4-yl)-5-fluoro-2-methylphenyl)carbamoyl)-3-fluorophenyl)-2-methyl-4,7,47,52-tetraoxo-51-undecyl-3,10,13,16,19,22,25,28,31,34,37,40,43-tridecaoxa-6,46,51-triazadohexacontan-62-oic acid] | 1 | >48 | 15.1 | 28 | 17.4 | 34.8 | >48 | 14.6 | 27.2 | 6.8 | 0.28 | – | – | – | – | – | – | – | –
2 | COc1ccc(C(=O)N2CCC3(CCN(CCc4ccc(-c5cc6c(-c7cc(F)cc(NC(=O)N8C[C@H](CC(C)C)[C@@H](O)C8)c7C)ncnc6[nH]5)cc4)CC3)CC2)cc1N1CCC(=O)NC1=O [Compound Va, (3R,4S)—N-(3-(6-(4-(2-(9-(3-(2,4-dioxotetrahydropyrimidin-1(2H)-yl)-4-methoxybenzoyl)-3,9-diazaspiro[5.5]undecan-3-yl)ethyl)phenyl)-7H-pyrrolo[2,3-d]pyrimidin-4-yl)-5-fluoro-2-methylphenyl)-3-hydroxy-4-isobutylpyrrolidine-1-carboxamide] | – | – | – | – | – | – | – | – | – | – | – | 16.7 | 15.2 | 15.2 | – | – | – | – | –
3 | CCCCCCCCCCCN(C(=O)CCCCCCCCCC(=O)O)C(CCC(=O)NCCOCCOCCOCCOCCOCCOCCOCCOCCOCCOCCOCCOCCC(=O)NC(C)(C)CC(=O)OC(C)(C)c1ccc(C(=O)Nc2cc(F)cc(-c3ncnc4[nH]c(-c5ccc(CCN6CCC7(CC6)CCN(C(=O)c6ccc(OC)c(N8CCC(=O)NC8=O)c6)CC7)cc5)cc34)c2C)c(F)c1)C(=O)O (stereo not shown) [Example A18, 51-Carboxy-2-(4-((3-(6-(4-(2-(9-(3-(2,4-dioxotetrahydropyrimidin-1(2H)-yl)-4-methoxybenzoyl)-3,9-diazaspiro[5.5]undecan-3-yl)ethyl)phenyl)-7H-pyrrolo[2,3-d]pyrimidin-4-yl)-5-fluoro-2-methylphenyl)carbamoyl)-3-fluorophenyl)-2,6,6-trimethyl-4,8,48,53-tetraoxo-52-undecyl-3,11,14,17,20,23,26,29,32,35,38,41,44-tridecaoxa-7,47,52-triazatrihexacontan-63-oic acid] | 0.6 | >48 | 0.8 | >48 | 0.2 | >48 | >48 | 0.3 | – | – | – | – | – | – | >48 | 0.4 | 0.3 | <4 | –
4 | CCCCCCCCCCCN(C(=O)CCCCCCCCCC(=O)O)C(CCC(=O)NCCOCCOCCOCCOCCOCCOCCOCCOCCOCCOCCOCCOCCC(=O)N1CCC[C@H]1CC(=O)OC(C)(C)c1ccc(C(=O)Nc2cc(F)cc(-c3ncnc4[nH]c(-c5ccc(CCN6CCC7(CC6)CCN(C(=O)c6ccc(OC)c(N8CCC(=O)NC8=O)c6)CC7)cc5)cc34)c2C)c(F)c1)C(=O)O (stereo partly drawn) [Example A19, 44-Carboxy-1-((S)-2-(2-((2-(4-((3-(6-(4-(2-(9-(3-(2,4-dioxotetrahydropyrimidin-1(2H)-yl)-4-methoxybenzoyl)-3,9-diazaspiro[5.5]undecan-3-yl)ethyl)phenyl)-7H-pyrrolo[2,3-d]pyrimidin-4-yl)-5-fluoro-2-methylphenyl)carbamoyl)-3-fluorophenyl)propan-2-yl)oxy)-2-oxoethyl)pyrrolidin-1-yl)-1,41,46-trioxo-45-undecyl-4,7,10,13,16,19,22,25,28,31,34,37-dodecaoxa-40,45-diazahexapentacontan-56-oic acid] | 0.3 | >48 | 0.5 | >48 | 0.5 | >48 | >48 | 0.3 | – | – | – | – | – | – | >48 | 0.2 | – | – | 7* days

Source: patent US20240216513A1, “FATTY ACID-BIFUNCTIONAL DEGRADER CONJUGATES AND THEIR METHODS OF USE” (Novartis AG, priority 2021, published 2024)
